Experimental data from paper PMC3581732 (Molecular microbiology, 2013).

Molecular target: the molecule itself
Assay: cross-linking

B1: TolC Y362F/R367E (YFRE^His), leaky/open mutant with a C-terminal 6His-tag (natural protein)
chain: ENLMQVYQQARLSNPELRKSAADRDAAFEKINEARSPLLPQLGLGADYTYSNGYRDANGINSNATSASLQLTQSIFDMSKWRALTLQEKAAGIQDVTYQTDQQTLILNTATAYFNVLNAIDVLSYTQAQKEAIYRQLDQTTQRFNVGLVAITDVQNARAQYDTVLANEVTARNNLDNAVEQLRQITGNYYPELAALNVENFKTDKPQPVNALLKEAEKRNLSLLQARLSQDLAREQIRQAQDGHLPTLDLTASTGISDTSYSGSKTRGAAGTQYDDSNMGQNKVGLSFSLPIYQGGMVNSQVKQAQYNFVGASEQLESAHRSVVQTVRSSFNNINASISSINAYKQAVVSAQSSLDAMEAGFSVGTETIVDVLDATTTLYNAKQELANARYNYLINQLNIKSALGTLNEQDLLALNNALSKPVSTNPENVAPQTPEQNAIADGYAPDSPAPVVQQTSARTTTSNGHNPFRN
  stoichiometry N: 3
